We go through five molecules from publication PMC3713096 (Molecular cell, 2013).

B4: GST-Cdc20_(166-499) (GST-Cdc20^C) (domain or fragment, human, UniProt Q12834 166-499, looked up)
chain: RYIPSLPDRILDAPEIRNDYYLNLVDWSSGNVLAVALDNSVYLWSASSGDILQLLQMEQPGEYISSVAWIKEGNYLAVGTSSAEVQLWDVQQQKRLRNMTSHSARVGSLSWNSYILSSGSRSGHIHHHDVRVAEHHVATLSGHSQEVCGLRWAPDGRHLASGGNDNLVNVWPSAPGEGGWVPLQTFTQHQGAVKAVAWCPWQSNVLATGGGTSDRHIRIWNVCSGACLSAVDAHSQVCSILWSPHYKELISGHGFAQNQLVIWKYPTMAKVAELKGHTSRVLSLTMSPDGATVASAAADETLRLWRCFELDPARRREREKASAAKSSLIHQGIR
B5: Cdc20^C (Cdc20_(166-499), free in solution) (domain or fragment, human, UniProt Q12834 166-499, looked up)
chain: RYIPSLPDRILDAPEIRNDYYLNLVDWSSGNVLAVALDNSVYLWSASSGDILQLLQMEQPGEYISSVAWIKEGNYLAVGTSSAEVQLWDVQQQKRLRNMTSHSARVGSLSWNSYILSSGSRSGHIHHHDVRVAEHHVATLSGHSQEVCGLRWAPDGRHLASGGNDNLVNVWPSAPGEGGWVPLQTFTQHQGAVKAVAWCPWQSNVLATGGGTSDRHIRIWNVCSGACLSAVDAHSQVCSILWSPHYKELISGHGFAQNQLVIWKYPTMAKVAELKGHTSRVLSLTMSPDGATVASAAADETLRLWRCFELDPARRREREKASAAKSSLIHQGIR

Common to all, as to test: pull-down
In assay [1] the target is B4.
Assay [2] deals with B5.
Assay [3] deals with Cdc20 (full length, Cdc20^FL) (human, UniProt Q12834 1-499).
For the next assay, the target named is BubR1_(1-363) (human, UniProt O60566 1-363).
A further assay addresses GST-BubR1^N (human, UniProt O60566 1-477).

B1: Cdc20_(1-163) (Cdc20^N) (domain or fragment, human, UniProt Q12834 1-163, looked up)
chain: MAQFAFESDLHSLLQLDAPIPNAPPARWQRKAKEAAGPAPSPMRAANRSHSAGRTPGRTPGKSSSKVQTTPSKPGGDRYIPHRSAAQMEVASFLLSKENQPENSQTPTKKEHQKAWALNLNGFDVEEAKILRLSGKPQNAPEGYQNRLKVLYSQKATPGSSRK
On to B1, for which the binding result in assay [1] is reported as “binds”.

B2: GST-Cdc20^N (domain or fragment, human, UniProt Q12834 1-163, looked up)
chain: MAQFAFESDLHSLLQLDAPIPNAPPARWQRKAKEAAGPAPSPMRAANRSHSAGRTPGRTPGKSSSKVQTTPSKPGGDRYIPHRSAAQMEVASFLLSKENQPENSQTPTKKEHQKAWALNLNGFDVEEAKILRLSGKPQNAPEGYQNRLKVLYSQKATPGSSRK
Turning to B2, in assay [2], the binding result was “binds”.

B3: BubR1_(1-477) (BubR1^N) (domain or fragment, human, UniProt O60566 1-477, looked up)
chain: MAAVKKEGGALSEAMSLEGDEWELSKENVQPLRQGRIMSTLQGALAQESACNNTLQQQKRAFEYEIRFYTGNDPLDVWDRYISWTEQNYPQGGKESNMSTLLERAVEALQGEKRYYSDPRFLNLWLKLGRLCNEPLDMYSYLHNQGIGVSLAQFYISWAEEYEARENFRKADAIFQEGIQQKAEPLERLQSQHRQFQARVSRQTLLALEKEEEEEVFESSVPQRSTLAELKSKGKKTARAPIIRVGGALKAPSQNRGLQNPFPQQMQNNSRITVFDENADEASTAELSKPTVQPWIAPPMPRAKENELQAGPWNTGRSLEHRPRGNTASLIAVPAVLPSFTPYVEETARQPVMTPCKIEPSINHILSTRKPGKEEGDPLQRVQSHQQASEEKKEKMMYCKEKIYAGVGEFSFEEIRAEVFRKKLKEQREAELLTSAEKRAEMQKQIEEMEKKLKEIQTTQQERTGDQQEETMPTKET
Take B3: the “fold increase of association with Mad2 against without Mad2” value in assay [3] was roughly 6 fold.
B4: the binding result in the assay with BubR1_(1-363) was “binds”.
Regarding B5, the binding result with GST-BubR1^N is “binds”.
